Test results published in patent US6207389A, “Methods of controlling T lymphocyte mediated immune responses” (HRC Research and Development Limited Partnership, priority 1995, dated 2001).

B1: rec-p69: recombinant human islet cell antigen p69 expressed in E. coli, SEQ ID No. 2 (protein)
chain: MSGHKCSYPWDLQDRYAQDKSVVNKMQQKYWETKQAFIKATGKKEDEHVVASDADLDAKLELFHSIQRTCLDLSKAIVLYQKGICFLSQEENELGKFLRSQGFQDKTRAGKMMQATGKALCFSSQQRLALRNPLCRFHQEVETFRHRAISDTWLTVNRMEQCRTEYRGALLWMKDVSQELDPDLYKQMEKFRKVQTQVRLAKKNFDKLKMDVCQKVDLLGASRCNLLSHMLATYQTTLLHFWEKTSHTMAAIHESFKGYQPYEFTTLKSLQDPMKKLVEKEEKKKINQQESTDAAVQEPSQLISLEEENQRKESSSFKTEDGKSILSALDKGSTHTACSGPIDELLDMKSEEGACLGPVAGTPEPEGADKDDLLLLSEIFNASSLEEGEFSKEWAAVFGDGQVKEPVPTMALGEPDPKAQTGSGFLPSQLLDQNMKDLQASLQEPAKAASDLTAWFSLFADLDPLSNPDAVGKTDKEHELLNA
B2: truncated p69: 100 amino acid truncated p69 encoded by clone IS4 cDNA, contains Tep69 region, SEQ ID No. 41 (protein)
chain: MSGHKCSYPWDLQDRYAQDKSVVNKMQQKYWETKQAFIKATGKKEDEHVVASDADLDAKLELFHSIQRTCLDLSKAIVLYQKRICSF
B3: ovalbumin (protein, UniProt P01012 2-386, looked up)
Ovalbumin: GSIGAASMEFCFDVFKELKVHHANENIFYCPIAIMSALAMVYLGAKDSTRTQINKVVRFDKLPGFGDSIEAQCGTSVNVHSSLRDILNQITKPNDVYSFSLASRLYAEERYPILPEYLQCVKELYRGGLEPINFQTAADQARELINSWVESQTNGIIRNVLQPSSVDSQTAMVLVNAIVFKGLWEKAFKDEDTQAMPFRVTEQESKPVQMMYQIGLFRVASMASEKMKILELPFASGTMSMLVLLPDEVSGLEQLESIINFEKLTEWTSSNVMEERKIKVYLPRMKMEEKYNLTSVLMAMGITDVFSSSANLSGISSAESLKISQAVHAAHAEINEAGREVVGSAEAGVDAASVSEEFRADHPFLFCIKHIATNAVLFFGRCVSP
notes: bona fide non-self control antigen

Tests used:
[1] = system: PBMC from children with recent onset diabetes; test: T cell proliferation assay with BSA and rec-p69, patients (Example 3); format: cell-based, human; conditions: 1 μg antigen
Method: (§1) Cultures containing 5×10^4 cells were incubated for 7 days at 37° C. in serum-free HL-1 medium (Ventrex, Portland, Me.) containing 1 μg antigen per well for test samples.
(§2) Control cultures were treated with 1 μg human, chick or horse albumin or an equivalent volume of control recombinant antigen prepared from lysates of E. coli carrying wild type plasmid.
(§3) After an overnight pulse of 1 μci ^3 H thymidine, cultures were harvested and submitted to liquid scintillation counting. Proliferation was expressed as cpm ^3 HTdR×10^-3.
(§4) A parallel set of cell cultures was incubated with the same test antigens or control agents in the presence of 10 U human IL2.

[2] = system: PBMC from healthy subjects; test: T cell proliferation assay with BSA and rec-p69, healthy subjects (Example 3); format: cell-based, human; conditions: with or without IL2
Method: as §1, §2, §3, §4

[3] = system: NOD mice lymph node cells; test: Immunization and T cell proliferation assay, NOD mice (Example 11); format: in vivo, mouse; conditions: 50 μg sc in complete Freund's adjuvant, recall with 1 μg antigen in vitro
Method: (§5) Recombinant truncated p69 was prepared by expression of a portion of the cDNA of IS4. The cDNA was cut a few nucleotides downstream of the 3' terminal of exon 3 and was subcloned into the PET™ expression system according to the manufacturer's recommendations (Novagen Inc., Madison, Wis.). The truncated protein contains 100 amino acids and is essentially identical with the murine molecule.
(§6) Antigens were injected subcutaneously in complete Freunds' adjuvant, and local lymph nodes and blood samples were collected 10 days later. Triplicate cultures of 2×10^5 lymph node cells were incubated for 5 days in serum-free HGM-af Medium™ (Promo Cell, Heidelberg, Germany) in the presence of 1 μg of protein or synthetic peptide as recall antigen. Six hours before harvesting, 1 μCi ^3 H-thymidine (6.7 Ci/mmol) was added to the wells, and isotope incorporation was analysed by liquid scintillation counting. Values are expressed as mean counts per minute ± standard deviation (mean cpm ± SD).
(§7) Young male NOD mice (H2^G7, IE^-/-) received a single immunization with truncated p69 (as encoded by IS4 cDNA) in complete adjuvant, and antibody and T cell proliferative responses were measured 8-10 days later. MHC disparate C57/B6 (H2^b, IE^-/-) and SJL (H2^s, IE^-/-) mice served as non-diabetes prone controls (FIG. 31).

[4] = system: C57/B6 and SJL mice lymph node cells; test: Immunization and T cell proliferation assay, non-diabetes prone control mice (Example 11); format: in vivo, mouse; conditions: 50 μg sc in complete Freund's adjuvant
Method: as §5, §6, §7

[5] = system: NOD mice; test: Serum antibodies to BSA and p69 by fluoroimmunoassay, NOD mice (Example 11); format: in vivo, mouse; conditions: 50 μg sc in complete Freund's adjuvant
Method: (§8) Male non-obese diabetic mice (NOD, 6-7 weeks old) were immunized with 50 μg BSA, ABBOS-short peptide ([…]), recombinant truncated p69 or p69 T cell epitope peptide `Tep69` ([…]) (10). Recombinant truncated p69 was prepared by expression of a portion of the cDNA of IS4. The cDNA was cut a few nucleotides downstream of the 3' terminal of exon 3 and was subcloned into the PET™ expression system according to the manufacturer's recommendations (Novagen Inc., Madison, Wis.).
(§9) Antigens were injected subcutaneously in complete Freunds' adjuvant, and local lymph nodes and blood samples were collected 10 days later. […] Six hours before harvesting, 1 μCi ^3 H-thymidine (6.7 Ci/mmol) was added to the wells, and isotope incorporation was analysed by liquid scintillation counting. Values are expressed as mean counts per minute ± standard deviation (mean cpm ± SD).
(§10) Serum antibodies to BSA and p69 were measured by particle concentration fluoroimmunoassay, as described (11). […] Bound fluorescence was read by an automated ScreenMachine™ instrument (IDEXX, Portland, Me.). Data are expressed in kilofluorescence units relative to a standard mouse serum analyzed in parallel within each assay plate.
(§11) Young male NOD mice (H2^G7, IE^-/-) received a single immunization with truncated p69 (as encoded by IS4 cDNA) in complete adjuvant, and antibody and T cell proliferative responses were measured 8-10 days later. […]

[6] = system: C57/B6 and SJL mice; test: Serum antibodies to BSA and p69 by fluoroimmunoassay, control mice (Example 11); format: in vivo, mouse; conditions: 50 μg sc in complete Freund's adjuvant
Method: as §8, §9, §10, §11

[7] = listed as recombinant truncated p69

| Molecule | proliferative response of patient samples ([1]; absence of IL2) | proliferative response of patient samples ([1]; absence of IL2, listed as recombinant human p69 protein) | proliferative response of patient samples ([1]; presence of 10 U IL2, listed as recombinant human p69 protein) | proliferative response of samples from healthy subjects [2] | T cell proliferative response after immunisation [3] | T cell proliferative response after immunisation [3, 7] | T cell proliferative response after immunisation [4] | T cell proliferative response after immunisation [4, 7] | antibody response after immunisation (anti-p69 or anti-BSA) [5] | antibody response after immunisation (anti-p69 or anti-BSA) [5, 7] | antibody response after immunisation (anti-p69 or anti-BSA) [6] |
| --- | --- | --- | --- | --- | --- | --- | --- | --- | --- | --- | --- |
| B1 | at best a small proliferative response | little or no proliferative response | full proliferative response | no significant proliferative response |  |  |  |  |  |  |  |
| B2 |  |  |  |  | Vigorous p69-specific antibody and T cell responses | vigorous B- and T cell responses | not in C57/B6 or SJL strains | essentially no responses | Vigorous p69-specific antibody and T cell responses | vigorous B- and T cell responses | not in C57/B6 or SJL strains |
| B3 |  |  |  |  |  |  | comparable responses |  |  |  | comparable responses |
